# Experimental data as given in patent US20260209316A1 (US Dept. of Health and Human Services, published 2026).
# Where two headings read alike, the source gives them in different places.
# T1: full-length Sudan GP (GPFL) (Sudan virus (SUDV), UniProt Q7T9D9 33-650)
# T1 construct: also called Sudan GPFL; GP(S)FL
# T1 sequence: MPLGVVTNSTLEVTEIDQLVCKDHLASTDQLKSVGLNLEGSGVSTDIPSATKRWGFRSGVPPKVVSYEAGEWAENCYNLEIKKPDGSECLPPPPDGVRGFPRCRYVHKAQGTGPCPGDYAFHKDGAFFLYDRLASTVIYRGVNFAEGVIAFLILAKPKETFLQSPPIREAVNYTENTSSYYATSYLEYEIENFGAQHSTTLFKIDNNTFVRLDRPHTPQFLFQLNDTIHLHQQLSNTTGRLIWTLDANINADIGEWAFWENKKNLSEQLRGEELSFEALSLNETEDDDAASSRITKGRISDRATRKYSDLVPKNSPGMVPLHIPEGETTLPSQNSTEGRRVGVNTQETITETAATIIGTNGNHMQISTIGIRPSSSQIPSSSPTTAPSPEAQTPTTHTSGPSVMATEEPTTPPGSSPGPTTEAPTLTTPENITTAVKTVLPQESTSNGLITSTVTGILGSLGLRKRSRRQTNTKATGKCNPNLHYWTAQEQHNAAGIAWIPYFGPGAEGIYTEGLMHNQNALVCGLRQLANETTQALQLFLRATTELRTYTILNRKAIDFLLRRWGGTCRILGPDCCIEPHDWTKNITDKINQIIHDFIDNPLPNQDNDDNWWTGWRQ
# T2: full-length Zaire GP (GPFL) (Ebola (Zaire) virus (EBOV), UniProt Q05320 33-632)
# T2 construct: also called Zaire GPFL; GP(Z)FL
# T2 sequence: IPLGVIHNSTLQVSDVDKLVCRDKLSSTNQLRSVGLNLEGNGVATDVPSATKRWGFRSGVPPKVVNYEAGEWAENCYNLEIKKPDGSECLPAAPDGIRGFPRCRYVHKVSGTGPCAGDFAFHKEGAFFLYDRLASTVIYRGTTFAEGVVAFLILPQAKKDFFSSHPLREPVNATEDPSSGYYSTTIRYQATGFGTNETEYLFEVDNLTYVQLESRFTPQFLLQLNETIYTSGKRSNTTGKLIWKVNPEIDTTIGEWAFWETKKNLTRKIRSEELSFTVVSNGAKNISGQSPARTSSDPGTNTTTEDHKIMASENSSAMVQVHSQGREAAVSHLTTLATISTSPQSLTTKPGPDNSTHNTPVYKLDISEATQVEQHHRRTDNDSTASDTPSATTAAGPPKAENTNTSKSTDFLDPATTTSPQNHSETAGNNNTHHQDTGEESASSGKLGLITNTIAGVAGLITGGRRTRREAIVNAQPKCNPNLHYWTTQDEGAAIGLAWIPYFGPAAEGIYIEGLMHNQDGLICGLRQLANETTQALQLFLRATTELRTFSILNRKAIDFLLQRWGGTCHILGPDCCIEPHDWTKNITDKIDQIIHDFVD
# T3: SUDV GP on pseudotyped lentiviral vector (Sudan virus (SUDV), UniProt Q7T9D9 33-676)
# T3 sequence: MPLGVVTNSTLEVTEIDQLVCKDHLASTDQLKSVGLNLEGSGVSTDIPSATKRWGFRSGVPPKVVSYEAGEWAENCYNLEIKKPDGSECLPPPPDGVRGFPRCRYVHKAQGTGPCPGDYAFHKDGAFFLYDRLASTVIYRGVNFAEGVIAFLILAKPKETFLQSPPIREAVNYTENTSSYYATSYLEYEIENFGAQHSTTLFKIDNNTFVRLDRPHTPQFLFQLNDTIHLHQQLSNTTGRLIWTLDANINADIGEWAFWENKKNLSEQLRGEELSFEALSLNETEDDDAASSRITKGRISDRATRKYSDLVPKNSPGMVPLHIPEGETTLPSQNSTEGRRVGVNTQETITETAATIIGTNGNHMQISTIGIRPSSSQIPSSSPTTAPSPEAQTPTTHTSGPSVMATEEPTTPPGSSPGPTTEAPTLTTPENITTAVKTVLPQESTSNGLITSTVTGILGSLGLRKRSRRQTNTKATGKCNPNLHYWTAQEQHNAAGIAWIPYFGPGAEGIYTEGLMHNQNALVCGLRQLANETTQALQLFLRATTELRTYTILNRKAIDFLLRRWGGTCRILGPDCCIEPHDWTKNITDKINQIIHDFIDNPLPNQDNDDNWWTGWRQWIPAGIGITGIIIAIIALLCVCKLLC
# T4: EBOV GP on pseudotyped lentiviral vector (Ebola (Zaire) virus (EBOV), UniProt Q05320 33-676)
# T4 sequence: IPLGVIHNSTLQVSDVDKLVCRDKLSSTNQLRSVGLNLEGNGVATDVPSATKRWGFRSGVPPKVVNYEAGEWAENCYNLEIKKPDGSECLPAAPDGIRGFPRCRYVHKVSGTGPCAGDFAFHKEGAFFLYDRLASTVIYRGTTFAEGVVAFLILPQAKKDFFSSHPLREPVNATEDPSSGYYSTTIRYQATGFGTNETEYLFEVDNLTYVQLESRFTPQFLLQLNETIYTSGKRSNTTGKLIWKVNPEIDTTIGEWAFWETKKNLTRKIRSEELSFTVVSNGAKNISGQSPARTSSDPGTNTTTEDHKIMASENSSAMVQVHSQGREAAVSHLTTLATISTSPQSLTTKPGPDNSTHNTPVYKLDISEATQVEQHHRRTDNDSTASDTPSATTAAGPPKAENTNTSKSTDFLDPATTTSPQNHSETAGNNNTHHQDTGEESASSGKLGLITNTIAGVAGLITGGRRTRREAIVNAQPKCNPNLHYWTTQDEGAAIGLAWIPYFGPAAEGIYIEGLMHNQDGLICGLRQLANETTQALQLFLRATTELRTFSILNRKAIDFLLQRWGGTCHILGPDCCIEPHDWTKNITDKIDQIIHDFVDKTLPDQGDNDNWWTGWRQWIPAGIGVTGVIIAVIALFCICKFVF
# What was measured:
# [1] = molecular target: T1, full-length Sudan GP (GPFL); assay: ELISA on coated GP
# [2] = molecular target: T2, full-length Zaire GP (GPFL); assay: ELISA on coated GP
# [3] = molecular target: T3, SUDV GP on pseudotyped lentiviral vector; assay: cell-based or functional assay
# [4] = molecular target: T4, EBOV GP on pseudotyped lentiviral vector; assay: cell-based or functional assay
# [5] = molecular target: T2, full-length Zaire GP (GPFL); assay: ELISA on coated GP; remark: listed apart in the source
# [6] = molecular target: T4, EBOV GP on pseudotyped lentiviral vector; assay: cell-based or functional assay; remark: listed apart in the source
# [7] = molecular target: T1, full-length Sudan GP (GPFL); assay: ELISA on coated GP; remark: listed apart in the source
# [8] = molecular target: T3, SUDV GP on pseudotyped lentiviral vector; assay: cell-based or functional assay; remark: listed apart in the source
# [9] = molecular target: T1, full-length Sudan GP (GPFL); assay: BLI, Fab, pH 5.3
# [10] = molecular target: T1, full-length Sudan GP (GPFL); assay: BLI, Fab, pH 7.4
# [11] = molecular target: T1, full-length Sudan GP (GPFL); assay: ELISA on coated GP; remark: listed apart in the source
# [12] = molecular target: T3, SUDV GP on pseudotyped lentiviral vector; assay: cell-based or functional assay; remark: listed apart in the source
binder,measurement,setting,value
"antibody 316L (antibody, V domains shown, also called 316L mAb; mAb 316L) VH: EERLVESGGGLVQPGGSLRLSCAASGFTFGDYAMHWVRQVPGKSLEWLSGISWSGYTTYSADSVKGRFTISRDNAKNSLYLQMNRLRPEDTGLYYCVTLIGAIGIKDSLDVWGRGVLVTVSS VL: QSVLTQPPSVSGAPGQRVTVSCSGSSSNIGAGNYVQWYQQLPGTAPKVLIYQTEKRPSGTSDRFSGSKSDTSASLTINGLQSEDEADYYCQVYDSNLNGWVFGGGTRLTVLG",EC50,[1],0.0175 µg/mL
same,EC50,[2],0.0441 µg/mL
same,"IC50, microneutralization of GP-pseudotyped lentiviral vector on HEK293 cells",[3],0.284 µg/mL
same,"IC50, microneutralization of GP-pseudotyped lentiviral vector on HEK293 cells",[4],1.77 µg/mL
"antibody mAb114 (antibody, V domains shown) VH: EVQLVESGGGLIQPGGSLRLSCAASGFALRMYDMHWVRQTIDKRLEWVSAVGPSGDTYYADSVKGRFAVSRENAKNSLSLQMNSLTAGDTAIYYCVRSDRGVAGLFDSWGQGILVTVSS VL: DIQMTQSPSSLSASVGDRITITCRASQAFDNYVAWYQQRPGKVPKLLISAASALHAGVPSRFSGSGSGTHFTLTISSLQPEDVATYYCQNYNSAPLTFGGGTKVEIK",EC50,[2],0.0239 µg/mL
same,EC50,[5],0.02 µg/mL
same,"IC50, microneutralization of GP-pseudotyped lentiviral vector on HEK293 cells",[4],0.152 µg/mL
same,"IC50, microneutralization of GP-pseudotyped lentiviral vector on HEK293 cells",[6],0.18 µg/mL
"antibody 291S (antibody, V domains shown) VH: QVQLQESGPGLVKPSQTLSLTCTVSGGSFSSGFYWSWIRQRPGKGLEWVGYTYYSGSTYYNPSLQSRVTISVDTSKNQFSLNLSSVTAADTAVYHCARADYGGLFDYWGQGILVTVSS VL: QSVLTQPSSLSASPGASASLTCTLRSGINVGTYRIFWYQQKPGSPPQFLLRYNSDSDKQQGSGVPSRFSGSKDASANAGILLISGLQSEDEADYYCMIWHTSAWVFGGGTKLTVL",EC50,[7],0.0565 µg/mL
same,"IC50, microneutralization of GP-pseudotyped lentiviral vector on HEK293 cells",[8],2.89 µg/mL
"Fab generated from 545S (Fab, V domains shown, also called 545S Fab) VH: QVQLQESGPGLVKPSQTLSLTCTVSGGSISRAGSYWSWIRQHPGKGLEWIGYISYSGSTYYNPSLESRVTMSLDTSKSQFSLKLSSVTAADTAVYYCAREDRSGFYGLDVWGQGTTVTVSS VL: QSVLTQPSSLSASPGATASLTCTLRSGINVDTYRIYWYQQKPGSPPQYLLRYKSDSDKHQGSGVPSRFSGSKDASANAGILLISGLQSADEADYYCMIWHSGAWVFGGGTKLTVQ",Kd,[9],1.97 nM
same,koff,[9],0.000147 s⁻¹
same,kon,[9],74300 M⁻¹ s⁻¹
same,Kd,[10],1.26 nM
same,koff,[10],0.000125 s⁻¹
same,kon,[10],99200 M⁻¹ s⁻¹
"antibody 380L (antibody, V domains shown, also called 380L mAb; mAb 380L) VH: EVQLVESGGGLVQPGGSLTLSCAASGFTFGDYVMHWVRQVPGRGLEWLSAVSWSGYTTYSADSVKGRFTISRDNAKNSLYLQMSRLGTADTGLYYCVTLIGAIGIRDSFDAWGRGVLVTVSS VL: QSVLTQPPSMSGAPGQRVTVSCTGSSSNIGAGNYVQWYQQLPGTAPKVLIYQTDKRPSGISDRFSGSKSGTSASLTISGLQSEDEADYYCQVYDSSLNGWVFGGGTRLTVL",EC50,[1],0.0195 µg/mL
same,EC50,[2],0.0398 µg/mL
same,"IC50, microneutralization of GP-pseudotyped lentiviral vector on HEK293 cells",[3],0.395 µg/mL
same,"IC50, microneutralization of GP-pseudotyped lentiviral vector on HEK293 cells",[4],0.756 µg/mL
"antibody 545S (antibody, V domains shown, also called 545S mAb) VH: QVQLQESGPGLVKPSQTLSLTCTVSGGSISRAGSYWSWIRQHPGKGLEWIGYISYSGSTYYNPSLESRVTMSLDTSKSQFSLKLSSVTAADTAVYYCAREDRSGFYGLDVWGQGTTVTVSS VL: QSVLTQPSSLSASPGATASLTCTLRSGINVDTYRIYWYQQKPGSPPQYLLRYKSDSDKHQGSGVPSRFSGSKDASANAGILLISGLQSADEADYYCMIWHSGAWVFGGGTKLTVQG",EC50,[7],0.0338 µg/mL
same,"IC50, microneutralization of GP-pseudotyped lentiviral vector on HEK293 cells",[8],0.624 µg/mL
"antibody 16F6 (antibody, V domains shown) VH: EVQLVESGGGLVTPGGSLKLSCAASGFAFNYYDMFWVRQNTEKRLEWVAYINSGGGNTYYPDTVKGRFTISRDNAKKTLFLQMSSLRSEDTAMYYCARQLYGNSFFDYWGQGTSLTVSA VL: DIVMTQSHKFMSTSVGDRVTITCKASQDVTTAVAWYQQKPGHSPKLLIYWASTRHTGVPDRFTGSGSGTDFTLTLNSVQAEDLALYYCQQHYSTPLTFGAGTKLELK",EC50,[1],0.068 µg/mL
same,EC50,[11],0.16 µg/mL
same,"IC50, microneutralization of GP-pseudotyped lentiviral vector on HEK293 cells",[3],0.068 µg/mL
same,"IC50, microneutralization of GP-pseudotyped lentiviral vector on HEK293 cells",[12],0.04 µg/mL
